Test results reported in patent publication US6624144B1, “Matrix metalloproteinase inhibitors and down-regulators” (CTT Cancer Targeting Technologies Oy, priority 1998, dated 2003).
Bridge positions count the residues as written; N and C are the ends. Ends that are not written are not given here. Peptide text beside a SMILES is read from it.

Assays:
[1] = Solubility in aqueous buffers
[2] = system: HT1080 fibrosarcoma cells; assay: Transwell random migration of HT1080 cells; type: cell-based; conditions: 500 μg/ml, control peptides
Method: The endothelial cell line HUVEC (human umbilical vein endothelial cells, obtained from the ATCC, Rockville, Md.) was grown in RPMI 1640 medium containing penicillin (100 units/ml), streptomycin (100 μg/ml), 10 mM HEPES, 30 μg/ml endothelial cell growth supplement (Biomedical Technologies, Stoughton, Mass.), and 20% fetal calf serum. The HT1080 fibrosarcoma cells (ATCC, Rockville, Md.), C8161 melanoma cells and Eahy926 cells (derivative of HUVEC) were cultured in Dulbecco's modified Eagle's medium containing the antibiotics, 10% fetal calf serum, and hypoxanthine/aminopterin/thymidine additive with the Eahy926 cells. Cultures of cells were harvested with trypsin-EDTA (endothelial cells) or EDTA alone (other cells), washed, and resuspended in the full serum-containing media as indicated above.
Random cell migration was studied using […] pore size and 6.5 mm diameter Transwell inserts (Costar, Cambridge, Mass.) that were equilibrated in the serum-containing medium for 2 h before use. Tumor cell invasion was studied using 6.4 mm diameter Boyden chambers precoated with Matrigel (Becton Dickinson, Bedford, MA) and equilibrated in the serum-containing medium. […] Cells were removed from the upper surface of the membrane with a cotton swab, and the cells migrated on the undersite of the membrane were counted microscopically, or alternatively quantitated by scanning.

APMA-activated MMP-9 [3] = target: T1, APMA-activated MMP-9 (Homo sapiens, UniProt P14780); assay: [125I]-gelatin degradation by APMA-activated MMP-9; type: biochemical
T1 construct: from tissue; host or cells: human neutrophils
T1 sequence (P14780 107-707 limits assumed): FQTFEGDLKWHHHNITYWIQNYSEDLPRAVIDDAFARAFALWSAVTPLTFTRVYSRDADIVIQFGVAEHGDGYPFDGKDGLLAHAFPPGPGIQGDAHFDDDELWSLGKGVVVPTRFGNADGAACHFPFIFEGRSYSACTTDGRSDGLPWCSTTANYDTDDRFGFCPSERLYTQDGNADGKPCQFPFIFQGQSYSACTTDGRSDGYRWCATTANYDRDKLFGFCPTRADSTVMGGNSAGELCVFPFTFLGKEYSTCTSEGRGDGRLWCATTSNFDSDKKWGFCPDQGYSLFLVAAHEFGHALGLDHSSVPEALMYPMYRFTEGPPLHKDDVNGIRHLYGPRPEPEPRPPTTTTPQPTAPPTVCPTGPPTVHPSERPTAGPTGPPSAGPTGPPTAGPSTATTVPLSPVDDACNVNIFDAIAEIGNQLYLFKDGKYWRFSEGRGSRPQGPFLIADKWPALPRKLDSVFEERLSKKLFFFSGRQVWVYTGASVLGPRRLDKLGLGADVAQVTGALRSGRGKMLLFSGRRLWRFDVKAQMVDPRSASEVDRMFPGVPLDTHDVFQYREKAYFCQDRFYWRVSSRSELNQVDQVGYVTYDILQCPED
Method: (§1) ProMMP-9 was purified from human neutrophils and activated with aminophenyl mercuric acetate (APMA) essentially as described by Hibbs et al. (1985). For the selection of MMP-9 binding phage, APMA-activated MMP-9 was coated on microtiter wells overnight at 4° C. using a concentration of 1 μg/ml, after which the […] were saturated with 5 % bovine serum albumin. In the first panning, the library was incubated overnight at 4° C. in 50 mM Tris-HCl/0.1 M NaCl buffer (pH 7.5) (TBS) containing 1% bovine serum albumin, and after extensive washing the bound phage were eluted with low pH buffer. In the subsequent pannings, the amplified phage were allowed to bind for 1 h at 22° C. […] The bound phage were quantitated by adding 50 ng per well of anti-M13 antibody (Pharmacia, Uppsala, Sweden) labeled with an Europium-chelate (Wallac Ltd., Turku, Finland). After incubation for 45 min followed by washing, the fluorescence was measured with 1230 Arcus fluorometer (Wallac Ltd., Turku, Finland).
(§2) For the gelatin and casein degradation assays, purified MMP-2 and MMP-9 (50-100 ng) were first incubated for 60 min with various concentrations of the peptide inhibitors, after which a 21 kDa β-casein (52 μM) or [^125I]-gelatin substrate was added. After incubation for 2 h at 22 ° C., degradation of the casein was analyzed by SDS gel electrophoresis. […]

proMMP-2 [4] = target: T2, proMMP-2 (Homo sapiens, UniProt P08253); assay: β-casein degradation by proMMP-2 not preactivated with APMA; type: biochemical
T2 construct: endogenous in cells; host or cells: human gingival fibroblasts (serum-free culture medium)
T2 sequence (P08253 30-660 limits assumed): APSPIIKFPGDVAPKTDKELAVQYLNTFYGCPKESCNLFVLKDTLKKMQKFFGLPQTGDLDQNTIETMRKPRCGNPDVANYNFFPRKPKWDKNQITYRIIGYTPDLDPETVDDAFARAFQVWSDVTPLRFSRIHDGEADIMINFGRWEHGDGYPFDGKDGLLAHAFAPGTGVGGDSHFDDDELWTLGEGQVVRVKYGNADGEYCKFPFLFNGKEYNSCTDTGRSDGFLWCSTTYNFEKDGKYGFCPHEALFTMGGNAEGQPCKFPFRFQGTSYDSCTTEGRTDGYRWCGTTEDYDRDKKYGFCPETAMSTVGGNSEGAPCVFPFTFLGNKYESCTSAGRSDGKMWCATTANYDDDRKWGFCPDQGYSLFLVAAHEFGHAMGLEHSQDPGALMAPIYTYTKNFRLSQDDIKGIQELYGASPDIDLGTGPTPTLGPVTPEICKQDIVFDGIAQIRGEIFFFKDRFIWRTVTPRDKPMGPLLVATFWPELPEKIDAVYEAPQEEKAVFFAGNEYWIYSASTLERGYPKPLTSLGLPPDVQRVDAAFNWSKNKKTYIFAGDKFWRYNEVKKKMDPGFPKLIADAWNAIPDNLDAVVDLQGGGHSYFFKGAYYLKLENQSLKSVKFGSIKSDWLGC
Method: (§3) After 1 h pretreatment with the peptides, APMA-activated MMP-2 (A, C) or proMMP-2 (B, D) was incubated with the casein for 2 h. 52 μM β-casein was used as substrate for MMPs. Shown is Coomassie Blue-staining of the 21 kD β-casein (lane 1) and its fragments (lanes 2-9) resolved by SDS-PAGE (A, B); CTTHWGFTLC(SEQ ID NO:3) was used at the concentrations of (2) 0 μg/ml, (3) 75, (4) 50, (5) 25, (6) 10, (7) 5, (8) 1, and (9) 0.5 μg/ml in the lanes 2-9, respectively. (C, D); the concentrations of CRRHWGFEFC(SEQ ID. NO:2) were 0, 250, 100, 50, 25, 10, 1, and 0.5 μg/ml, respectively.
(§4) For the gelatin and casein degradation assays, purified MMP-2 and MMP-9 (50-100 ng) were first incubated for 60 min with various concentrations of the peptide inhibitors, after which a 21 kDa β-casein (52 μM) or [^125I]-gelatin substrate was added. After incubation for 2 h at 22 ° C., degradation of the casein was analyzed by SDS gel electrophoresis. The degradation of [^125I]-gelatin was determined by counting radioactivity in the supernatant after precipitation of undegraded gelatin with 20% trichloroacetic acid.
(§5) We also used β-casein as a substrate for the gelatinases and analyzed the degradation products by SDS gel electrophoresis.

MMP-2 = target: T3, MMP-2 (Homo sapiens, UniProt P08253); assay: β-casein degradation by MMP-2 (SDS gel); type: biochemical; conditions: APMA-activated MMP-2, β-casein
T3 construct: endogenous in cells; host or cells: human gingival fibroblasts (serum-free culture medium)
T3 sequence (P08253 110-660): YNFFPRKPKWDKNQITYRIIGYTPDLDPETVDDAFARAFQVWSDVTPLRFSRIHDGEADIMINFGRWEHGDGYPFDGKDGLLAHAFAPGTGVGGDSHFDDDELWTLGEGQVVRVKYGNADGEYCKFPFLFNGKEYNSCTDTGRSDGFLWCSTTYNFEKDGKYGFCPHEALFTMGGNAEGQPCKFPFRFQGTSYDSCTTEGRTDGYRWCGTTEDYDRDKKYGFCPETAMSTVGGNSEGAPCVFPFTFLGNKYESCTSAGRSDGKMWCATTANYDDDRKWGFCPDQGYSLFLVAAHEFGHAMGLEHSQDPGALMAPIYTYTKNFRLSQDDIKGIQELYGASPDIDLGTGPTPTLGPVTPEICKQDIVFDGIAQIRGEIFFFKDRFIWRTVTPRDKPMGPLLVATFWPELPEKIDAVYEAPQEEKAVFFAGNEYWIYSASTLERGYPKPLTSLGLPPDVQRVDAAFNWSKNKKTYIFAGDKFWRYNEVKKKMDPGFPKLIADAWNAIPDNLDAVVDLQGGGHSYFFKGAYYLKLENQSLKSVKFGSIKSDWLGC
Method: as §3, §4, §5

proMMP-9 [5] = target: T4, proMMP-9 (Homo sapiens, UniProt P14780); assay: [125I]-gelatin degradation by proMMP-9 (autoactivating); type: biochemical
T4 construct: from tissue; host or cells: human neutrophils
T4 sequence (P14780 20-707 limits assumed): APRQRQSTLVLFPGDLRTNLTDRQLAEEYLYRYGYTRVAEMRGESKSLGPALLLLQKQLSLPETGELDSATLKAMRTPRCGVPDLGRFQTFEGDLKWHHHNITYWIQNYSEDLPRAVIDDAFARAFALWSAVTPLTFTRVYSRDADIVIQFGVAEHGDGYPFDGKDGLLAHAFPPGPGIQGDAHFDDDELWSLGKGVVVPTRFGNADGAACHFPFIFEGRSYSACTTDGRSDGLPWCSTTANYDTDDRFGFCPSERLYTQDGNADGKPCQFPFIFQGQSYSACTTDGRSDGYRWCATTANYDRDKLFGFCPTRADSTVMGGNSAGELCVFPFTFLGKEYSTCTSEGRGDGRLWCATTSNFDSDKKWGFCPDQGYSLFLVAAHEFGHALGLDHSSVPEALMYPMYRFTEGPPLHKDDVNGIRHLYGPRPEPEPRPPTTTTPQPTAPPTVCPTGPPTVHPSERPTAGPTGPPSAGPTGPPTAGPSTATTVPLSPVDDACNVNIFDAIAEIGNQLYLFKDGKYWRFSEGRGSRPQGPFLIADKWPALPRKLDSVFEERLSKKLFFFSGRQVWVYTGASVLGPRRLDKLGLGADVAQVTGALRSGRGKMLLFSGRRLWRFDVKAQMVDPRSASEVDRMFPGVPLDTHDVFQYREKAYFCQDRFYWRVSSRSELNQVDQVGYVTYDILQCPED
Method: as §1, §2

proMMP-2 [6] = target: T2, proMMP-2; assay: [125I]-gelatin degradation by proMMP-2; type: biochemical; conditions: 10 μg/ml
Method: as §4
(§6) proMMP-2 was purified from serum-free culture medium of human gingival fibroblasts.

APMA-activated MMP-2 [7] = target: T5, APMA-activated MMP-2 (Homo sapiens, UniProt P08253); assay: [125I]-gelatin degradation by APMA-activated MMP-2; type: biochemical; conditions: 10 μg/ml
T5 construct: endogenous in cells; host or cells: human gingival fibroblasts (serum-free culture medium)
T5 sequence (P08253 110-660): T3 sequence (P08253 110-660)
Method: as §4, §6

[8] = Toxicity when injected into animals; conditions: in vivo
APMA-activated MMP-2 [9] = target: T6, APMA-activated MMP-2 (human, UniProt P08253 30-660); assay: cell-based or functional assay
T6 sequence (looked up): T2 sequence (P08253 30-660 limits assumed)

proMMP-2 [10] = target: T7, proMMP-2 (human, UniProt P08253 30-660); assay: cell-based or functional assay
T7 sequence (looked up): T2 sequence (P08253 30-660 limits assumed)

APMA-activated MMP-9 [11] = target: APMA-activated MMP-9 (human, UniProt P14780 94-707); assay: cell-based or functional assay
proMMP-9 [12] = target: T8, proMMP-9 (human, UniProt P14780 20-707); assay: phage binding (attachment) assay
T8 construct: also called 92 kDa proMMP-9
T8 sequence (P14780 20-707): as the sequence (P14780 20-707 limits assumed) above

In the case of “EVGTGSCNLECVSTNPLSGTEQ (Targeted to Homo sapiens)”, the solubility [1] is reported as “highly soluble” and the “effect on cell migration” value [2] is reported as “None of these control peptides affected cell migration”.

For CQWNNDNPLFKEAEEEVMNPKFAES, the solubility [1] was “highly soluble”.

`N=C(N)NCCC[C@@H]1NC(=O)[C@H](CCCNC(=N)N)NC(=O)[C@@H](N)CSSC[C@@H](C(=O)O)NC(=O)[C@H](Cc2ccccc2)NC(=O)[C@H](CCC(=O)O)NC(=O)[C@H](Cc2ccccc2)NC(=O)CNC(=O)[C@H](Cc2c[nH]c3ccccc23)NC(=O)[C@H](Cc2c[nH]cn2)NC1=O` [CRRHWGFEFC] (H-CRRHWGFEFC-OH; disulfide 1-10; N-terminus and C-terminus assumed) showed an IC50 (APMA-activated MMP-9 [3]; APMA-activated MMP-9, read-out: half-maximal inhibitory value (IC50), [125I]-gelatin degradation (converted)) of about 7.47 µM, an IC50 (proMMP-2 [4]) of 18.7 µM and an IC50 (MMP-2) of about 18.7 µM. The “inhibition of proMMP-9 gelatinolytic activity” value (proMMP-9 [5]; peptide 10 μg/ml) was “more than 50%”.

With RAVRALWRC [RAVRALWRC] the solubility [1] was “highly soluble”.

For “linear CRRHWGFEFC: linearized version of CRRHWGFEFC prepared by reducing and alkylating the cysteine residues (also: cysteines reduced and alkylated, alkylating agent not given here)”, the “gelatinolysis by proMMP-2” value (proMMP-2 [6]) was “virtually inactive”, the “inhibitory activity against APMA-activated MMP-9 gelatinolysis” value (APMA-activated MMP-9 [3]; 10 μg/ml (FIG. 2)) was “loss of inhibitory activity” and the “gelatinolysis by APMA-activated MMP-2” value (APMA-activated MMP-2 [7]) was “virtually inactive”. For the same molecule, the “inhibitory activity against proMMP-9 gelatinolysis” value (proMMP-9 [5]; 10 μg/ml (FIG. 2)) was “loss of inhibitory activity”.

For `CC(C)C[C@@H]1NC(=O)[C@H]([C@@H](C)O)NC(=O)[C@H](Cc2ccccc2)NC(=O)CNC(=O)[C@H](Cc2c[nH]c3ccccc23)NC(=O)[C@H](Cc2c[nH]cn2)NC(=O)[C@H]([C@@H](C)O)NC(=O)[C@H]([C@@H](C)O)NC(=O)[C@@H](N)CSSC[C@@H](C(=O)O)NC1=O` [CTTHWGFTLC] (H-CTTHWGFTLC-OH; disulfide 1-10; N-terminus and C-terminus assumed), the “toxicity when injected into animals” value [8] was “no toxicity”, the IC50 (proMMP-2 [4]) was 4.29 µM and the IC50 (MMP-2) was about 4.29 µM.

For CTTHWGFTLC (disulfide 1-10 (inferred)) [cyclic CTTHWGFTLC synthetic peptide], the “IC50, β-casein degradation (SDS-PAGE)” value (APMA-activated MMP-2 [9]) was about 5 µg/mL and the “IC50, β-casein degradation (SDS-PAGE)” value (proMMP-2 [10]) was 5 µg/mL.

For CRRHWGFEFC (disulfide 1-10 (inferred)) [cyclic CRRHWGFEFC synthetic peptide], the “IC50, β-casein degradation (SDS-PAGE)” value (APMA-activated MMP-2 [9]) was about 25 µg/mL, the “IC50, [125I]-gelatin degradation assay” value (APMA-activated MMP-9 [11]) was about 10 µg/mL and the “IC50, β-casein degradation (SDS-PAGE)” value (proMMP-2 [10]) was 25 µg/mL.

B1: phage clone displaying CRRHWGFEFC (from the CX9 library) (peptide)
peptide: CRRHWGFEFC
notes: not shown: phage coat protein to which the peptide is fused
B1: no binding (proMMP-9 [12]).

B2: phage clone displaying CSLHWGFWWC (from the CX9 library) (peptide)
peptide: CSLHWGFWWC
notes: as for B1
B2: no binding (proMMP-9 [12]).
